Experimental data from patent publication US20240368565A1 (PROMEGA, published 2024).
Numbering of substitutions follows the chain as printed. Numbers in names are those of the source.

What was measured:
[1] = biological target: T1, Biotin-HaloTag[3-19] (I2R)-4xGly/Ser-VS-HiBiT (N-terminal biotin); assay: BLI; biotin-peptide on streptavidin probe; PBST, 25 C
T1 construct: Synthetic peptide; also called HaloTag[3-19](12R)-4×Gly/Ser-VS-HiBiT; DualTag peptide
T1 peptide: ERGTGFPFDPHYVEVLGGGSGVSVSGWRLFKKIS

[2] = biological target: Aga2-15xGly/Ser-4xGly/Ser-HaloTag[3-19]-4xGly/Ser-VS-HiBiT; assay: flow cytometry of yeast displaying the tag; reporter bound, washed, then JF549 HaloTag ligand
[3] = biological target: Aga2-15xGly/Ser-EGFP-4xGly/Ser-HaloTag[3-19]-4xGly/Ser-VS-HiBiT; assay: as above
[4] = biological target: Aga2-15xGly/Ser-EGFP-4xGly/Ser-HaloTag[3-19]-4xGly/Ser-…; assay: as above
[5] = biological target: Aga2-15xGly/Ser-EGFP-4xGly/Ser-HaloTag[3-19]-4xGly/Ser-…; assay: as above; remark: listed apart in the source
[6] = biological target: Aga2-15xGly/Ser-EGFP-4xGly/Ser-HaloTag[3-19]-4xGly/Ser-…; assay: as above; remark: listed apart in the source
[7] = biological target: T2, Biotin-HaloTag[3-19] (I2R)-4xGly/Ser-VS-HiBiT (K8R + K9R) (N-terminal biotin (on Glu1), used for immobilisation on streptavidin probes; not carried by the letters); assay: BLI; biotin-peptide on streptavidin probe; PBST, 25 C
T2 construct: Synthetic peptide
T2 peptide: T1 peptide with K31R, K32R

[8] = biological target: T3, Biotin-HaloTag[3-19] (I2R)-VS-HiBiT (N-terminal biotin (on Glu1), used for immobilisation on streptavidin probes; not carried by the letters); assay: as above
T3 construct: Synthetic peptide
T3 peptide: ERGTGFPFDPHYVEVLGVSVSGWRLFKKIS

[9] = biological target: T4, Biotin-HaloTag[3-19] (I2R)-4xGly/Ser-HiBiT (N-terminal biotin (on Glu1), used for immobilisation on streptavidin probes; not carried by the letters); assay: as above
T4 construct: Synthetic peptide
T4 peptide: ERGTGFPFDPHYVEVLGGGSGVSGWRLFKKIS

[10] = biological target: T5, Biotin-VS-HiBiT-5xGly/Ser-HaloTag[3-19] (I2R) (N-terminal biotin (on Val1), used for immobilisation on streptavidin probes; not carried by the letters); assay: as above
T5 construct: Synthetic peptide
T5 peptide: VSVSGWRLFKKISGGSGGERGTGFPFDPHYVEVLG

[11] = biological target: T6, VS-HiBiT-HaloTag[3-19] (I2R) (not fully specified; N-terminal biotin (on Val1) per the head of Table 1 ('All peptides are biotinylated at the N-terminus'), though Table 2 does not print Biotin for this entry; not carried by the …); assay: as above
T6 construct: Synthetic peptide

B1: HaloTag[22-297](M2F)-12xGly/Ser-LgBiT-3xGly/Ser-6xHis (other)
chain: MFHYVDVGPRDGTPVLFLHGNPTSSYVWRNIIPHVAPTHRCIAPDLIGMGKSDKPDLGYFFDDHVRFMDAFIEALGLEEVVLVIHDWGSALGFHWAKRNPERVKGIAFMEFIRPIPTWDEWPEFARETFQAFRTTDVGRKLIIDQNVFIEGTLPMGVVRPLTEVEMDHYREPFLNPVDREPLWRFPNELPIAGEPANIVALVEEYMDWLHQSPVPKLLFWGTPGVLIPPAEAARLAKSLPNCKAVDIGPGLNLLQEDNPDLIGSEIARWLSTLEISGGSGGSGGGGSGGMVFTLEDFVGDWEQTAAYNLDQVLEQGGVSSLLQNLAVSVTPIQRIVRSGENALKIDIHVIIPYEGLSADQMAQIEEVFKVVYPVDDHHFKVILPYGTLVIDGVTPNMLNYFGRPYEGIAVFDGKKITVTGTLWNGNKIIDERLITPDGSMLFRVTINSGSGHHHHHH
notes: Purified tandem polypeptide reporter (large split-HaloTag fragment fused to LgBiT); also called Reporter
With B1 the Kd [1] was 1.61 nM, the koff [1] was 8.34e-05 s⁻¹ and the kon [1] was 51900 M⁻¹ s⁻¹. For the same binder, the “percent of cells in the JF549+ gate” value [2] was 48.9%, the “percent of cells in the JF549+ gate” value [3] was 46.4% and the “percent of cells in the JF549+ gate” value [4] was 44.2%. For the same binder, the “percent of cells in the JF549+ gate” value [5] was 44.8% and the “percent of cells in the JF549+ gate” value [6] was 6.96%.

B2: HaloTag[22-297](M2F + D53G + K140E)-12xGly/Ser-LgBiT-3xGly/Ser-6xHis (other)
chain: B1 chain with D53G, K140E
B2 showed a kon [7] of 71400 M⁻¹ s⁻¹, a Kd [8] of 0.713 nM and a koff [8] of 6.05e-05 s⁻¹. It also gave a kon [8] of 84800 M⁻¹ s⁻¹, a Kd [9] of 0.323 nM and a koff [9] of 1.98e-05 s⁻¹. For the same binder, the kon [9] was 61300 M⁻¹ s⁻¹, the Kd [10] was 0.782 nM and the koff [10] was 6.94e-05 s⁻¹. The kon [10] was 88700 M⁻¹ s⁻¹, the Kd [11] was 0.613 nM and the koff [11] was 6.77e-05 s⁻¹. The kon [11] was 110000 M⁻¹ s⁻¹, the Kd [1] was 0.576 nM and the koff [1] was 4.82e-05 s⁻¹. The kon [1] was 83800 M⁻¹ s⁻¹.
